Assay results from patent publication US20050154189A1 (MAXYGEN, published 2005).
Changes are numbered by the printed parent chain.

B1: Round 2 CTLA4 A-B4-6 (ligand)
chain: ITPKSVTKRVKETVMLSCDYNTSTEELTSLRIYWQKDSKMVLAILPGKVQVWPEYKNRTITDMNDNPRIVILALRLSDKGTYTCVVQKNENGSFRREHLTSVTLSIRADFPVPTINDLGNPSPNIRRLICSTSGGFPRPHLYWLENGEELNATNTTLSQDPETKLYMISSELDFNMTSNHSFLCLVKYGDLTVSQTFYWQESKPTPSANQHLTWTIIIPVSAFGISVIIAVILTCLTCRNAAIRRQRRENEVEMQSCSQSP
B2: Round 2 CTLA4 A-E2-6 (ligand)
chain: B1 chain with K79S, T103R, S105M, S158P
B3: Round 2 CTLA4 A-F10-1 (ligand)
chain: B1 chain with F197L
B4: Round 2 CTLA4 A-F1-6 (ligand)
chain: B1 chain with N21S, T103R, S105M
B5: Round 2 CTLA4BP 2x3-h2 (ligand)
chain: VIHVTKEVKEVATLSCGHNVSVEELAQTRIYWQKEKKMVLTMMSGDMNIWPEYKNRTIFDITNNLSIVILALRPSDEGTYECVVLKYEKDAFKREHLAEVMLSVKADFPTPSISDFEIPPSNIRRIICSTPGGFPEPRLAWMEDGEELNAISTTVSQDPGTELYAVSSKLDFNMTTNHSFMCLIKYGHLRVNQTFNWNTTKQEHFPDNLLPSWAITLISVKGIFVICCLTYCFAPRWRERKSNERLRRESVRPV
B6: Round 2 CTLA4BP 2x1-e2 (ligand)
chain: VIHVTKEVKEVATLSCGHNVSDEELAQTRIHWQKEKKMVLTMMSGDMNIWPEYKNRTIFDITNNLSIVILALRPSDEGTYECVVLKYEKDAFKREHLAEVTLSVKADFPTPSISDFEIPPSNIRRIICSTSGGFPEPHLSWLENGEELNAINTTVSQDPGTELYTVSSKLDFNMTTNHSFMCLIKYGHLRVNQTFNWNTPKQEHFPDNLLPSAITLISANGIFVICCLTYCFAPRCRERRRNERLRRESIHPV
B7: Round 1 CTLA4BP-7 (ligand)
chain: VIHVTNEVKEVATLSCGHNVSGEELAQTRIYWQKEKKMVLTMMYGDMNIWPEYKNRTIFDITNNLSIVILALRPSDEGTYECVVLKYEKDAFKREHLAEVMLSVKADFPTPSITDFEIPPSNIRRIICLTSGGFPEPRLAWMKDGEELNAISTTVSQDPGTELYAVSSKLDFNMTTNHSFMCLIKYGHLRVNQTFSWNTPKQEHFPDNLLPSWAITLISVNGIFVICCLTYCFAPRCRERRRNERLRRESVRPV
notes: also called R1-7; R1 CTLA-4BP-7
B8: Round 2 CTLA4BP 2x4-g9 (ligand)
chain: VIHVTKEVKEVATLSCGHNVSVEELAQTRIYWQKDKKMVLTMMSGDMNIWPEYKNQTIFDITNNLSIVILALRPSDEGTYECVVLKYEKDAFKQEHLAEVMLSVKADFPTPSISDFEIPPSNIRRIICSTSGGFPEPRLAWMEDGEELNAISTTVSQDPGTELCTVSSKLDFNMTTNHSFMCLIRYGHLRVNQTFNWNTPKQEHFPDNLLPSWAITLISVKGIFVICCLTYCFAPRGRERKSNGRLRRESVHPV
B9: Round 2 CTLA4BP 2x1-c9 (ligand)
chain: VIHVTKEVKEVATLSCGHNVSAEELAQTRIYWQKEKKMVLTMMSGDMNIWPEYKNRTIFDITNNLSIVILALRPSDEGTYECVVLEYEKDAFKREHLAEVMLSVKADFPTPSITDFEIPTSNIRRIICSTSGGFPEPRLAWMEDGEELNAISTTASQDPETELYTVSSKLDFNMTTNHSFMCLIKYGHLRVNQTFNWNTPKQEHFPDNLLPSWAITLISVNGIFVICCLTHCFAPRCRERRRNERLRRESVCPV
B10: Round 1 CD28BP-126 (ligand)
chain: ITPKSVTKRVKETVMLSCDYSTSTEELTSLRIYWQKDSKMVLAILPGKVQVWPEYKNRTITDMNDNPRIVILALRLSDSGTYTCVIQKPDLKGAYKLEHLTSVRLMIRADFPVPTINDLGNPSPNIRRLICSTSGGFPRPHLYWLENGEELNATNTTVSQDPGTELYMISSELDFNVTNNHSIVCLIKYGELSVSQIFPWSKPKQEPPIDQLPFWVIIPVSGALVLTAVVLYCLACRHVARWKRTRRNEETVGTERLSPIYLGSAQSSG
notes: also called R1clone 126; Clone 126
B11: Round 2 CD28A4-5* (ligand)
chain: B10 chain with S21N, D90V, V158L, G163E, E165K
B12: Round 2 CTLA4 A-C9-9 (ligand)
chain: SGITPKSVTKRVKETVMLSCDYSTSTEELTSLRIYWQKDSKMVLAILPGKVQVWPEYKNRTFPDIINNLSLMILALRLSDRGTYTCVVQKNENGSFRREHLTSVTLSIRADFPVPSITDIGHPAPNVKRIRCSASGGFPEPRLAWMEDGEELNAVNTTVDQDLDTELYSVGSELDFNVTNNHSIVCLIKYGELSVSQIFPWSKPKQEPPIDQLPFWVIIPVSGALVLTAVVLYCLARRHVARWKRTRRNEETVGTERLSPIYLGSAQSSG
B13: Round 2 CTLA4BP 2x2-f3 (ligand)
chain: VIYVTKEVKEVATLSCGHNVSVEELAQTRIYWQKEKKMVLIMMSGDMNIWPEYKNRTIFDITNNLSIVILALRPSDEGTECVVLKYEKDAFKREHLAEVTLSVKADFPTPSISDFEIPPSNIRRIICSTSGGFPEPHLSWLENGEELNAINTTVSQDPGTELYTVSSKLDFNMTTNHSFMCLIKYGHLRVNQTFNWNTPKQEHFPDNLLPSWAITLISVNGIFVICCLTYCFAPRCRERRRNERLRRESVCPV
B14: Round 2 CTLA4BP-5x3-11b (ligand)
chain: VIHVTKEVKEVATLSCGHNVSVEELAQTRIYWQKEKKMVLTMMSGDMNIWPEYKNRTIFDITNNLSIVILALRSSDEGTYECVVLKYEKDAFKREHLAEVTLSVKADFPTPSITDFEIPPSNIRRIICSTSGGFPEPHLSWLENGEELNAISTTVSQDPETELYTVSSKLDFNMTTNRSFVCLIKYGHLRVNQTFNWNTPKQEHFPDNLLPSWAITLISVNGIFVICCLTYCFAPRCRERRSNERLRRESVRPV
B15: Round 2 CTLA4BP-5x2-11d (ligand)
chain: B14 chain with Y31H, S74P, T101M, S140F, S152N, N177D, V220A, R241K, R245T
B16: Round 2 CTLA4BP-5x6-9d (ligand)
chain: B14 chain with Y31H, S74P, T101M, T114S, P120T, S152N, T176A, R178H, S242R
B17: Round 2 CTLA4BP-5x4-12c (ligand)
chain: VIHVTKEVKEVATLSCGHNVSVEELAQTRIHWQKEKKMVLTMMSGDMNIWPEYKNRTIFDITNNLSIVILALRPSDEGTYECVVLKYEKDAFKREHLAEVMLSVKADFPTPSISDFEIPPSNIRRIICSTSGGFPEPHLFWLENGEELNAINTTVSQDPETELYTVSSKLDFNMTTNHSFMCLIKYGHLRVNQTFNWNTPKQEHFPDNLLPSWAITLISANGIFVICCLTYRFAPRCRERKSNETLRRESVRPV
notes: Full-length clone on transiently or stably transfected 293 cells; The end 288 is the end of the entry as counted; also called R2 CTLA-4BP 5x4-12c; clone 12c
B18: Round 2 CTLA4BP-5x5-2e (ligand)
chain: B17 chain with H18L, F140S, T165A, A220V, R232C, K241R, S242R
B19: Round 2 CTLA4BP-5x4-1f (ligand)
chain: B17 chain with P120T, A220V, R232C, K241R, S242R, T245R, R252C
B20: Round 2 CTLA4BP-5x9-12c (ligand)
chain: B17 chain with S114T, F140S, V155A, A220V, R232C, T245R
B21: Round 2 CTLA4BP-5x5-6e (ligand)
chain: B17 chain with S114T, F140S, N152S, P200T, Y231H, R232C, S242R, T245R
B22: Round 2 CTLA4BP-5x8-1f (ligand)
chain: B17 chain with S114T, T130A, T165A, K185R, A220V, R232C, T245R
B23: Round 2 CTLA4BP-5x4-11d (ligand)
chain: B17 chain with H18L, E88D, M101T, F140S, T176A, M181V, A220V, T245R
B24: Round 2 CTLA4 A-H3-6 (ligand)
chain: GISQVTKSVKEMAALSCDYNISIDELARMRIYWQKDQQMVLSIISGQVEVWPEYKNRTFPDIINNLSLMILALRLSDKGTYTCVVQKNENGSFRREHLTSVTLSIRADFPVPSINDLGNPSPNIRRLICSTSGGFPRPHLYWLENGEELNATNTTLSQDPETKLYMISSELDFNMTSNHSFLCLVKYGDLTVSQTFYWQESKPTPSANQHLTWTIIIPVSAFGISVIIAVILTCLTCRNAAIRRQRRENEVEMQSCSQSP
B25: Round 2 CTLA4 A-H4-5* (ligand)
chain: ITPKSVTKRVKETVMLSCDYSTSTEELTSLRIYWQKDSKMVLAILPGKVQVWPEYKNRTITDMNDNPRIVILALRLSDKGTYTCVVQKNENGSFRREHLTSVTLSIRADFPVPSITDIGHPAPNVKRIRCSASGGFPEPRLYWLENGEELNATNTTVSQDPGTELYMISSELDFNVTNNHSIVCLIKYGELSVSQIFPWSKPKQEPPIDQLPFWVIIPVSGALVLTAVVLYCLACRHVARWKRTRRNEETVGTERLSPIYLGSAQSSG
B26: Round 2 CTLA4BP-5x2-10c (ligand)
chain: VIHVTKEVKEVATLSCGHNVSVEELAQTRIHWQKEKKMVLTMMSGDMNIWPEYKNRTIFDITNNLSIVILALRPSDEGTYECVVLKYEKDAFKREHLAEVMLSVKADFPTPSITDFEIPPSNIRRIICSTSGGFPEPHLSWLENGEELNAINTTVSQDPETELYTVSSKLDFNMTANHSFVCLIKYGHLRVNQTFNWNTPKQEHFPDNLLPSWAITLISVNGIFVICCLTYCFAPRCRERRNETLRRESVRPV

Experiments:
Soluble CTLA-4-Ig = molecular target: T1, Soluble CTLA-4-Ig (human, UniProt P16410 36-161, FITC-conjugated in the two-colour FACS assays; unlabelled and detected with FITC goat anti-human IgG in the concentration-dependent assay); test: two-colour FACS profile on transfected cells; score of preference for CTLA-4-Ig over CD28-Ig vs WT hB7-1
T1 construct: extracellular domain; Bought from R&D Systems; also called sCTLA-4-Ig; CTLA-4-Ig Fc; not shown: Fc portion of human IgG1

Soluble CD28-Ig = molecular target: T2, Soluble CD28-Ig (human, UniProt P10747 19-152, biotin-conjugated (NHS-biotin) in the labelled-ligand FACS assays); test: two-colour FACS profile on transfected cells; score of preference for CD28-Ig over CTLA-4-Ig vs WT hB7-1
T2 construct: extracellular domain; Bought from R&D Systems; also called sCD28-Ig; CD28-Ig Fc; not shown: Fc portion of human IgG1

T1 sequence (P16410 36-161): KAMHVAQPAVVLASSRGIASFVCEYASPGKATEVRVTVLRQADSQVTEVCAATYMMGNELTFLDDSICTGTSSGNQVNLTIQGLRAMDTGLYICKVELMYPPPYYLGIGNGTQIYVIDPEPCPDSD

Binding Score (Soluble CTLA-4-Ig)	Binding Score (Soluble CD28-Ig)	Binder
1	–	B1
1	–	B2
1	–	B3
1	–	B4
0	–	B5
1	–	B6
1	–	B7
1	–	B8
1	–	B9
–	1	B10
–	1	B11
0	–	B12
1	–	B13
1	–	B14
2	–	B15
2	–	B16
2	–	B17
2	–	B18
2	–	B19
2	–	B20
2	–	B21
2	–	B22
2	–	B23
1	–	B24
1	–	B25
2	–	B26
